Key:
[1] = tested on: HeLa Kyoto; experiment: solubility change mitosis vs G1/S (difference of NP-40 vs SDS log2 ratios) (log2 ratio difference); higher = more soluble in mitosis
[2] = tested on: HeLa Kyoto; experiment: solubility in G1/S (NP-40 vs SDS abundance) (log2 ratio); higher = more soluble; conditions: cell cycle stage: G1/S
[3] = tested on: HeLa Kyoto; experiment: thermal stability score vs G1/S (z-score of summed log2 fold changes over temperatures); higher = more thermally stable than in G1/S
[4] = tested on: HeLa Kyoto; experiment: melting temperature (median over replicates), in situ; higher = more thermally stable
[5] = cell cycle stage: early G1 (4.5 h after nocodazole release)
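For melting temperature (median over replicates), in situ in this document: HeLa Kyoto cells synchronized by double thymidine or nocodazole block, proteins quantified by TMT10plex mass spectrometry, three independent biological replicates.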
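For solubility change mitosis vs G1/S (difference of NP-40 vs SDS log2 ratios) in this document: synchronized HeLa Kyoto cells (double thymidine block for G1/S, nocodazole release for mitosis), protein amounts in NP-40 versus SDS lysates quantified by mass spectrometry, three biological replicates.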
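For solubility in G1/S (NP-40 vs SDS abundance) in this document: HeLa Kyoto cells arrested at G1/S by double thymidine block, proteins quantified by TMT10plex mass spectrometry in mild NP-40 versus SDS extracts, three biological replicates.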
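For thermal stability score vs G1/S (z-score of summed log2 fold changes over temperatures) in this document: synchronized HeLa Kyoto cells, proteins quantified by TMT10plex mass spectrometry, three biological replicates, mitosis taken 0.5 h after nocodazole release, G1/S directly after double thymidine block.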

Sequence | solubility change mitosis (log2) [1] | solubility in G1/S (log2) [2] | thermal stability score [3, 5] | thermal stability score ([3]; cell cycle stage: mitosis) | melting temperature ([4]; cell cycle stage: G1/S) [°C] | melting temperature ([4]; cell cycle stage: mitosis) [°C]
MAAPGLRLGAGRLFEMPAVLERLSRYNSTSQAFAEVLRLPKQQLRKLLYPLQEVERFLAPYGRQDLHLRIFDPSPEDIARADNIFTATERNRIDYVSSAVRIDHAPDLPRPEVCFIGRSNVGKSSLIKALFSLAPEVEVRVSKKPGHTKKMNFFKVGKHFTVVDMPGYGFRAPEDFVDMVETYLKERRNLKRTFLLVDSVVGIQKTDNIAIEMCEEFALPYVIVLTKIDKSSKGHLLKQVLQIQKFVNMKTQGCFPQLFPVSAVTFSGIHLLRCFIASVTGSLD [GTPBP8] | -0.0931 | 0.0451 | -0.696 | 0.105 | 50.8 | 52.8
MAPLLGRKPFPLVKPLPGEEPLFTIPHTQEAFRTREEYEARLERYSERIWTCKSTGSSQLTHKEAWEEEQEVAELLKEEFPAWYEKLVLEMVHHNTASLEKLVDTAWLEIMTKYAVGEECDFEVGKEKMLKVKIVKIHPLEKVDEEATEKKSDGACDSPSSDKENSSQIAQDHQKKETVVKEDEGRRESINDRARRSPRKLPTSLKKGERKWAPPKFLPHKYDVKLQNEDKIISNVPADSLIRTERPPNKEIVRYFIRHNALRAGTGENAPWVVEDELVKKYSLPSKFSDFLLDPYKYMTLNPSTKRKNTGSPDRKPSKKSKTDNSSLSSPLNPKLWCHVHLKKSLSGSPLKVKNSKNSKSPEEHLEEMMKMMSPNKLHTNFHIPKKGPPAKKPGKHSDKPLKAKGRSKGILNGQKSTGNSKSPKKGLKTPKTKMKQMTLLDMAKGTQKMTRAPRNSGGTPRTSSKPHKHLPPAALHLIAYYKENKDREDKRSALSCVISKTARLLSSEDRARLPEELRSLVQKRYELLEHKKRWASMSEEQRKEYLKKKREELKKKLKEKAKERREKEMLERLEKQKRYEDQELTGKNLPAFRLVDTPEGLPNTLFGDVAMVVEFLSCYSGLLLPDAQYPITAVSLMEALSADKGGFLYLNRVLVILLQTLLQDEIAEDYGELGMKLSEIPLTLHSVSELVRLCLRRSDVQEESEGSDTDDNKDSAAFEDNEVQDEFLEKLETSEFFELTSEEKLQILTALCHRILMTYSVQDHMETRQQMSAELWKERLAVLKEENDKKRAEKQKRKEMEAKNKENGKVENGLGKTDRKKEIVKFEPQVDTEAEDMISAVKSRRLLAIQAKKEREIQEREMKVKLERQAEEERIRKHKAAAEKAFQEGIAKAKLVMRRTPIGTDRNHNRYWLFSDEVPGLFIEKGWVHDSIDYRFNHHCKDHTVSGDEDYCPRSKKANLGKNASMNTQHGTATEVAVETTTPKQGQNLWFLCDSQKELDELLNCLHPQGIRESQLKERLEKRYQDIIHSIHLARKPNLGLKSCDGNQELLNFLRSDLIEVATRLQKGGLGYVEETSEFEARVISLEKLKDFGECVIALQASVIKKFLQGFMAPKQKRRKLQSEDSAKTEEVDEEKKMVEEAKVASALEKWKTAIREAQTFSRMHVLLGMLDACIKWDMSAENARCKVCRKKGEDDKLILCDECNKAFHLFCLRPALYEVPDGEWQCPACQPATARRNSRGRNYTEESASEDSEDDESDEEEEEEEEEEEEEDYEVAGLRLRPRKTIRGKHSVIPPAARSGRRPGKKPHSTRRSQPKAPPVDDAEVDELVLQTKRSSRRQSLELQKCEEILHKIVKYRFSWPFREPVTRDEAEDYYDVITHPMDFQTVQNKCSCGSYRSVQEFLTDMKQVFTNAEVYNCRGSHVLSCMVKTEQCLVALLHKHLPGHPYVRRKRKKFPDRLAEDEGDSEPEAVGQSRGRRQKK [BAZ1B] | 1.24 | -2.14 | 1.09 | -0.274 | 50.7 | 51
MAGGPPKALPSTGPHSLRDMPHPLAGSSSEEAVGGDSTPSPDLLMARSFGDKDLILPNGGTPAGTSSPASSSSLLNRLQLDDDIDGETRDLFVIVDDPKKHVCTMETYITYRITTKSTRVEFDLPEYSVRRRYQDFDWLRSKLEESQPTHLIPPLPEKFVVKGVVDRFSEEFVETRRKALDKFLKRITDHPVLSFNEHFNIFLTAKDLNAYKKQGIALLTRMGESVKHVTGGYKLRTRPLEFAAIGDYLDTFALKLGTIDRIAQRIIKEEIEYLVELREYGPVYSTWSALEGELAEPLEGVSACIGNCSTALEELTDDMTEDFLPVLREYILYSDSMKSVLKKRDQVQAEYEAKLEAVALRKEDRPKVPADVEKCQDRMECFNADLKADMERWQNNKRQDFRQLLMGMADKNIQYYEKCLMAWESIIPLLQEKQEAK [SNX30] | -0.31 | 0.262 | 0.333 | 1.76 | 50.1 | 50.7
MGNSALRAHVETAQKTGVFQLKDRGLTEFPADLQKLTSNLRTIDLSNNKIESLPPLLIGKFTLLKSLSLNNNKLTVLPDEICNLKKLETLSLNNNHLRELPSTFGQLSALKTLSLSGNQLGALPPQLCSLRHLDVMDLSKNQIRSIPDSVGELQVIELNLNQNQISQISVKISCCPRLKILRLEENCLELSMLPQSILSDSQICLLAVEGNLFEIKKLRELEGYDKYMERFTATKKKFA [LRRC57] | 0.00239 | 0.266 | -0.373 | -0.56 | 53.2 | 53.6
MDALEDYVWPRATSELILLPVTGLECVGDRLLAGEGPDVLVYSLDFGGHLRMIKRVQNLLGHYLIHGFRVRPEPNGDLDLEAMVAVFGSKGLRVVKISWGQGHFWELWRSGLWNMSDWIWDARWLEGNIALALGHNSVVLYDPVVGCILQEVPCTDRCTLSSACLIGDAWKELTIVAGAVSNQLLVWYPATALADNKPVAPDRRISGHVGIIFSMSYLESKGLLATASEDRSVRIWKVGDLRVPGGRVQNIGHCFGHSARVWQVKLLENYLISAGEDCVCLVWSHEGEILQAFRGHQGRGIRAIAAHERQAWVITGGDDSGIRLWHLVGRGYRGLGVSALCFKSRSRPGTLKAVTLAGSWRLLAVTDTGALYLYDVEVKCWEQLLEDKHFQSYCLLEAAPGPEGFGLCAMANGEGRVKVVPINTPTAAVDQTLFPGKVHSLSWALRGYEELLLLASGPGGVVACLEISAAPSGKAIFVKERCRYLLPPSKQRWHTCSAFLPPGDFLVCGDRRGSVLLFPSRPGLLKDPGVGGKARAGAGAPVVGSGSSGGGNAFTGLGPVSTLPSLHGKQGVTSVTCHGGYVYTTGRDGAYYQLFVRDGQLQPVLRQKSCRGMNWLAGLRIVPDGSMVILGFHANEFVVWNPRSHEKLHIVNCGGGHRSWAFSDTEAAMAFAYLKDGDVMLYRALGGCTRPHVILREGLHGREITCVKRVGTITLGPEYGVPSFMQPDDLEPGSEGPDLTDIVITCSEDTTVCVLALPTTTGSAHALTAVCNHISSVRAVAVWGIGTPGGPQDPQPGLTAHVVSAGGRAEMHCFSIMVTPDPSTPSRLACHVMHLSSHRLDEYWDRQRNRHRMVKVDPETRYMSLAVCELDQPGLGPLVAAACSDGAVRLFLLQDSGRILQLLAETFHHKRCVLKVHSFTHEAPNQRRRLLLCSAATDGSLAFWDLTTMLDHDSTVLEPPVDPGLPYRLGTPSLTLQAHSCGINSLHTLPTREGHHLVASGSEDGSLHVFVLAVEMLQLEEAVGEAGLVPQLRVLEEYSVPCAHAAHVTGLKILSPSIMVSASIDQRLTFWRLGHGEPTFMNSTVFHVPDVADMDCWPVSPEFGHRCALGGQGLEVYNWYD [WDR6] | -0.023 | -0.611 | -0.588 | 0.0649 | 51.5 | 51.6
